Data from US20090280135A1.
Each block holds one binder with its values, some of them ahead of it.

Tests used:
[1] = target: rat BV8S2 TCR of the A1 T-cell hybridoma (C14/BW12-12A1), specific for Gp-BP-72-89 (rat); assay: flow cytometry on A1 hybridoma, 10 µM complex, 17 h at 4 C, detection with OX6-PE
[2] = target: TCR of the MBP-69-89 specific short-term rat T-cell line (rat); assay: cell-based or functional assay
[3] = target: rat BV8S2 TCR of the A1 T-cell hybridoma (C14/BW12-12A1), specific for Gp-BP-72-89 (rat); assay: flow cytometry on A1 hybridoma
[4] = target: TCR of the cardiac myosin CM-2-specific cell line (rat); assay: flow cytometry on CM-2 cell line (blocked with unconjugated OX6), 10 µM complex, detection with OX6-PE
[5] = target: rat BV8S2 TCR of the A1 T-cell hybridoma (C14/BW12-12A1), specific for Gp-BP-72-89 (rat); assay: flow cytometry on A1 hybridoma with directly A488-labelled complex, 3 h at 4 C

mean fluorescence intensity (MFI) [1]: 800 Units | inhibition of proliferation ([3H]thymidine) of MBP-69-89 specific T-cell line after pre-treatment with 10 nM complex [2]: > 90% | fold increase in MFI over background [3]: 10 fold
B1: β1α1/MBP-69-89 complex (rat RT1.B β1α1 construct loaded with MBP-69-89 peptide) (peptide-MHC)
chain: MGRDSPRDFVYQFKGLCYYTNGTQRIRDVIRYIYNQEEYLRYDSDVGEYRALTELGRPSAEYFNKQYLEQTRAELDTVCRHNYEGSEVRTSLRRLGGQDDIEADHVAAYGINIYQYYESRGQFTHEFDGDEEFYVDLDKKETIWRIPEFGQLTSFDPQGGLQNIAIIKHNLEILMKRSNSTQAVN
peptide: GSLPQKSQRSQDENPVVHF

inhibition of proliferation ([3H]thymidine) of MBP-69-89 specific T-cell line after pre-incubation with 20 µM complex [2]: 27%
B2: β1α1/MBP-55-69 complex (rat RT1.B β1α1 loaded with Gp-MBP-55-69 peptide) (peptide-MHC)
chain: MGRDSPRDFVYQFKGLCYYTNGTQRIRDVIRYIYNQEEYLRYDSDVGEYRALTELGRPSAEYFNKQYLEQTRAELDTVCRHNYEGSEVRTSLRRLGGQDDIEADHVAAYGINIYQYYESRGQFTHEFDGDEEFYVDLDKKETIWRIPEFGQLTSFDPQGGLQNIAIIKHNLEILMKRSNSTQAVN
peptide: SGKDSHHAARTTHYG

mean fluorescence intensity (MFI) [4]: 1800 Units
B3: β1α1/CM-2 complex (rat RT1.B β1α1 construct loaded with cardiac myosin peptide CM-2) (peptide-MHC)
chain: MGRDSPRDFVYQFKGLCYYTNGTQRIRDVIRYIYNQEEYLRYDSDVGEYRALTELGRPSAEYFNKQYLEQTRAELDTVCRHNYEGSEVRTSLRRLGGQDDIEADHVAAYGINIYQYYESRGQFTHEFDGDEEFYVDLDKKETIWRIPEFGQLTSFDPQGGLQNIAIIKHNLEILMKRSNSTQAVN
peptide: KLELQSALEEAEASLEH

MCI [5]: 300 Units
B4: A488-conjugated β1α1 loaded with MBP-69-89 (peptide-MHC)
chain: MGRDSPRDFVYQFKGLCYYTNGTQRIRDVIRYIYNQEEYLRYDSDVGEYRALTELGRPSAEYFNKQYLEQTRAELDTVCRHNYEGSEVRTSLRRLGGQDDIEADHVAAYGINIYQYYESRGQFTHEFDGDEEFYVDLDKKETIWRIPEFGQLTSFDPQGGLQNIAIIKHNLEILMKRSNSTQAVN
peptide: GSLPQKSQRSQDENPVVHF
modifications: Alexa-488 dye conjugated (molar ratio dye/protein=1), site not stated
